# Patent US20210324028A1 (Pfizer, published 2021)
# T1: human IL-2Rβ (human, UniProt P14784 27-240, limits assumed)
# T1 construct: also called hIL-2Rβ; IL-2 receptor beta
# T1 sequence (looked up): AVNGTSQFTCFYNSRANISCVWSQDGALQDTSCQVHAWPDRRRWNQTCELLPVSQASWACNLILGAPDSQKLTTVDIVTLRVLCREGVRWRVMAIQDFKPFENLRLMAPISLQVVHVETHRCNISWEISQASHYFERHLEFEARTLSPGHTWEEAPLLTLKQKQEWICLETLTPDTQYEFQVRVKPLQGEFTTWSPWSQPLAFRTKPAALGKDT
# Legend:
# human IL-15Rα = biological target: T2, human IL-15Rα (human, UniProt Q13261 31-205, limits assumed); experiment: SPR, steady state
# T2 construct: also called hIL-15Rα; IL-15 receptor alpha
# human IL-2Rβ = biological target: T1, human IL-2Rβ; experiment: SPR, steady state
# T2 sequence (Q13261 31-205 limits assumed): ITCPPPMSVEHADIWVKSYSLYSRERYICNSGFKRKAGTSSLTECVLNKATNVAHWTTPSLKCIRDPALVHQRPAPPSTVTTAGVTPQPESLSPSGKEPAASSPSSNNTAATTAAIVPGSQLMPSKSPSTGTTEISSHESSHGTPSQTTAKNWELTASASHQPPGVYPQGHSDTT
Kd (human IL-15Rα) [nM],Kd (human IL-2Rβ) [nM],Binder
104,296,hIL-15 V49R/I68V (ligand) NWVNVISDLKKIEDLIQSMHIDATLYTESDVHPSCKVTAMKCFLLELQRISLESGDASIHDTVENLIVLANNSLSSNGNVTESGCKECEELEEKNIKEFLQSFVHIVQMFINTGGGGSGHHHHHHHHGGGLNDIFEAQKIEWHE
92.9,> 1000,hIL-15 V49R/I68Y (ligand) NWVNVISDLKKIEDLIQSMHIDATLYTESDVHPSCKVTAMKCFLLELQRISLESGDASIHDTVENLIYLANNSLSSNGNVTESGCKECEELEEKNIKEFLQSFVHIVQMFINTGGGGSGHHHHHHHHGGGLNDIFEAQKIEWHE
102,> 500,hIL-15 V49R/I68R (ligand) NWVNVISDLKKIEDLIQSMHIDATLYTESDVHPSCKVTAMKCFLLELQRISLESGDASIHDTVENLIRLANNSLSSNGNVTESGCKECEELEEKNIKEFLQSFVHIVQMFINTGGGGSGHHHHHHHHGGGLNDIFEAQKIEWHE
85,> 1000,hIL-15 V49R/I68N (ligand) NWVNVISDLKKIEDLIQSMHIDATLYTESDVHPSCKVTAMKCFLLELQRISLESGDASIHDTVENLINLANNSLSSNGNVTESGCKECEELEEKNIKEFLQSFVHIVQMFINTGGGGSGHHHHHHHHGGGLNDIFEAQKIEWHE
76.3,> 500,hIL-15 V49R/I68T (ligand) NWVNVISDLKKIEDLIQSMHIDATLYTESDVHPSCKVTAMKCFLLELQRISLESGDASIHDTVENLITLANNSLSSNGNVTESGCKECEELEEKNIKEFLQSFVHIVQMFINTGGGGSGHHHHHHHHGGGLNDIFEAQKIEWHE

# The remaining lines, values behind:
Binder,Kd (human IL-15Rα) [nM],Kd (human IL-2Rβ) [nM]
hIL-15 V49R/H32V (ligand) NWVNVISDLKKIEDLIQSMHIDATLYTESDVVPSCKVTAMKCFLLELQRISLESGDASIHDTVENLIILANNSLSSNGNVTESGCKECEELEEKNIKEFLQSFVHIVQMFINTGGGGSGHHHHHHHHGGGLNDIFEAQKIEWHE,99.8,247
hIL-15 V49R/I68M (ligand) NWVNVISDLKKIEDLIQSMHIDATLYTESDVHPSCKVTAMKCFLLELQRISLESGDASIHDTVENLIMLANNSLSSNGNVTESGCKECEELEEKNIKEFLQSFVHIVQMFINTGGGGSGHHHHHHHHGGGLNDIFEAQKIEWHE,96.2,> 1000
hIL-15 V49R/I68F (ligand) NWVNVISDLKKIEDLIQSMHIDATLYTESDVHPSCKVTAMKCFLLELQRISLESGDASIHDTVENLIFLANNSLSSNGNVTESGCKECEELEEKNIKEFLQSFVHIVQMFINTGGGGSGHHHHHHHHGGGLNDIFEAQKIEWHE,78.5,> 1000
hIL-15 V49R/I68L (ligand) NWVNVISDLKKIEDLIQSMHIDATLYTESDVHPSCKVTAMKCFLLELQRISLESGDASIHDTVENLILLANNSLSSNGNVTESGCKECEELEEKNIKEFLQSFVHIVQMFINTGGGGSGHHHHHHHHGGGLNDIFEAQKIEWHE,73.6,245
hIL-15 V49R/I68H (ligand) NWVNVISDLKKIEDLIQSMHIDATLYTESDVHPSCKVTAMKCFLLELQRISLESGDASIHDTVENLIHLANNSLSSNGNVTESGCKECEELEEKNIKEFLQSFVHIVQMFINTGGGGSGHHHHHHHHGGGLNDIFEAQKIEWHE,87.6,> 1000
hIL-15 V49R/I68A (ligand) NWVNVISDLKKIEDLIQSMHIDATLYTESDVHPSCKVTAMKCFLLELQRISLESGDASIHDTVENLIALANNSLSSNGNVTESGCKECEELEEKNIKEFLQSFVHIVQMFINTGGGGSGHHHHHHHHGGGLNDIFEAQKIEWHE,113,> 500
